The assay concerns the target acetylcholine receptor. The experiment in a line: SPR, AchR immobilised on chip, peptide at 10 uM.

As for KLVSRK [6mer-2-321], the Binding affinity is 139 RU.

RQFQKR [6mer-2-306] came in with a Binding affinity of 141 RU.

RLVCRK [6mer-2-276] came in with a Binding affinity of 153 RU.

As to KVILRR [6mer-2-334], the Binding affinity is 146 RU.

On to RWRTKR [6mer-2-313], for which the Binding affinity amounted to 154 RU.

KWYRRK [6mer-2-296] gave a Binding affinity of 135 RU.

KGIRRR [6mer-2-316] registered a Binding affinity of 139 RU.

For RRQRRR [6mer-2-315], the Binding affinity came out at 139 RU.

The molecule KQICKK [6mer-2-302] displayed a Binding affinity of 148 RU.

For the molecule RGLYKR [6mer-2-317], the Binding affinity stood at 135 RU.

Molecule KWRSRK [6mer-2-272] came in with a Binding affinity of 154 RU.

Consider RSLYR [5mer-253], for which the Binding affinity (RU) is 75 RU.

Regarding RQIQKK [6mer-2-278], the Binding affinity is 135 RU.

Regarding RVYTKR [6mer-2-329], the Binding affinity came out at 142 RU.

KLRTKR [6mer-2-274]: the Binding affinity turned out to be 148 RU.

For KSIYRR [6mer-2-280], the Binding affinity is 153 RU.

RQFSR [5mer-250] displayed a Binding affinity (RU) of 76 RU.

Take KWICKK [6mer-2-298]: the Binding affinity is 149 RU.

The molecule KQFYKK [6mer-2-305] yielded a Binding affinity of 154 RU.

RSLSRR [6mer-2-297] showed a Binding affinity of 139 RU.

Take KRRYKK [6mer-2-286]: the Binding affinity worked out at 139 RU.

As for KWFYRK [6mer-2-304], the Binding affinity was 144 RU.

In turn, RWRLKK [6mer-2-300] came in with a Binding affinity of 153 RU.

In turn, KWITK [5mer-549] registered an SPR binding response of 78 RU.

As to RQQSR [5mer-550], the Binding affinity (RU) came to 83 RU.

Molecule KVFTKR [6mer-2-303] showed a Binding affinity of 126 RU.

Consider KLFQRK [6mer-2-310], for which the Binding affinity was determined as 149 RU.

In turn, KRFRRK [6mer-2-333] showed a Binding affinity of 139 RU.

Molecule RGFYKK [6mer-2-326] displayed a Binding affinity of 142 RU.

Consider KLQSRK [6mer-2-324], for which the Binding affinity was found to be 139 RU.

In turn, RSRQRK [6mer-2-319] registered a Binding affinity of 137 RU.

The molecule KSLQRK [6mer-2-279] returned a Binding affinity of 148 RU.

With KRISK [5mer-251], the Binding affinity (RU) worked out at 70 RU.

RLYLKR [6mer-2-287] showed a Binding affinity of 124 RU.

RRQYKK [6mer-2-332] had a Binding affinity of 145 RU.

The molecule RQYRRK [6mer-2-320] registered a Binding affinity of 148 RU.

KLRQRR [6mer-2-273] returned a Binding affinity of 131 RU.

RLYSR [5mer-552] yielded a Binding affinity (RU) of 63 RU.

Turning to KQQSKR [6mer-2-293], the Binding affinity is 153 RU.

Regarding KGISKR [6mer-2-308], the Binding affinity is 148 RU.

Molecule RQQYRK [6mer-2-282] registered a Binding affinity of 151 RU.

In the case of KQYRK [5mer-252], the Binding affinity (RU) is 53 RU.

RWVSKK [6mer-2-331] gave a Binding affinity of 148 RU.

As for RGIQKK [6mer-2-318], the Binding affinity is 145 RU.

With RLLQKK [6mer-2-289], the Binding affinity came out at 146 RU.

RRYSRR [6mer-2-322] came in with a Binding affinity of 148 RU.

KLRSKR [6mer-2-284] registered a Binding affinity of 151 RU.

Turning to KLISKR [6mer-2-283], the Binding affinity turned out to be 148 RU.

In turn, KLYYRR [6mer-2-294] gave a Binding affinity of 135 RU.

KQYCKK [6mer-2-314] had a Binding affinity of 127 RU.

RWQYR [5mer-551] registered a Binding affinity (RU) of 59 RU.

With KVLLRK [6mer-2-323], the Binding affinity amounted to 145 RU.

RRIQRR [6mer-2-285] showed a Binding affinity of 142 RU.

Molecule RLRSKK [6mer-2-307] returned a Binding affinity of 141 RU.

In turn, KWRTKR [6mer-2-312] showed a Binding affinity of 121 RU.

KQLRKK [6mer-2-330]: the Binding affinity amounted to 139 RU.

Consider RQLYRK [6mer-2-290], for which the Binding affinity came to 135 RU.

Regarding KGLRKR [6mer-2-327], the Binding affinity turned out to be 153 RU.

Take KVRYKK [6mer-2-295]: the Binding affinity worked out at 145 RU.

The molecule KVVTRK [6mer-2-311] yielded a Binding affinity of 147 RU.

For RQVRKR [6mer-2-301], the Binding affinity stood at 122 RU.

Consider RQLCKR [6mer-2-292], for which the Binding affinity came to 121 RU.

KRYQRK [6mer-2-328] gave a Binding affinity of 131 RU.

The molecule KGQRKK [6mer-2-281] came in with a Binding affinity of 149 RU.

With RRYRKR [6mer-2-291], the Binding affinity came out at 154 RU.

Molecule RSYCR [5mer-249] displayed a Binding affinity (RU) of 52 RU.

For KLITRR [6mer-2-275], the Binding affinity stood at 135 RU.

RLRYRK [6mer-2-277] returned a Binding affinity of 128 RU.

For the molecule KSRLRK [6mer-2-288], the Binding affinity amounted to 122 RU.

As to RWYYRK [6mer-2-299], the Binding affinity was determined as 141 RU.

RVFSRK [6mer-2-325]: the Binding affinity amounted to 142 RU.

On to KRRRRR [6mer-2-309], for which the Binding affinity turned out to be 151 RU.

The values above are taken from patent publication US20250011363A1, “OPTIMIZED SHORTENED PEPTIDE THAT BINDS TO ACETYLCHOLINE RECEPTOR, AND USE THEREOF” (SKINMED CO., LTD., priority 2021, published 2025).
